Among the data in patent US20220288223 are Kcat/Km values, retold here.

The target of data set [1] is RACPP with substrate TLSLEH.
Data set [2] addresses RACPP with substrate Nle-TPRSFL.
Data set [3] deals with RACPP with substrate RLQLK(Ac)L.
In data set [4] the target is RACPP with substrate KLRFSQK.
In data set [5] the target is RACPP with substrate PLGLEEA.
For data set [6], the target named is RACPP with substrate TIAHLA.
The target of data set [7] is RACPP with substrate GVAYSGA.
In data set [8] the target is RACPP with substrate PLGC(me)AG.
Data set [9] has as its target RACPP with substrate SYPYKY.
Data set [10] concerns the target RACPP with substrate YGRAAA.
For data set [11], the target named is RACPP with substrate TGRAAA.

B1: CathepsinK (protein)
chain: APDSVDYRKKGYVTPVKNQGQCGSCWAFSSVGALEGQLKKKTGKLLNLSPQNLVDCVSENDGCGGGYMTNAFQYVQKNRGIDSEDAYPYVGQEESCMYNPTGKAAKCRGYREIPEGNEKALKRAVARVGPVSVAIDASLTSFQFYSKGVYYDESCNSDNLNHAVLAVGYGIQKGNKHWIIKNSWGENWGNKGYILMARNKNNACGIANLASFPKM
Turning to B1, the Kcat/Km is 497 in data set [1]; 2350 in [2]; 2870 in [3]; 7440 in data set [4]; 787 in data set [5]; 833 in data set [6]. In addition, the Kcat/Km came out at 1070 in [7] and 2640 in [8].

B2: MMP-12 (protein)
chain: GPVWRKHYITYRINNYTPDMNREDVDYAIRKAFQVWSNVTPLKFSKINTGMADILVVFARGAHGDFHAFDGKGGILAHAFGPGSGIGGDAHFDEDEFWTTHSGGTNLFLTAVHEIGHSLGLGHSSDPKAVMFPTYKYVDINTFRLSADDIRGIQSLYGDPKENQRLPNPDNSEPALCDPNLSFDAVTTVGNKIFFFKDRFFWLKVSERPKTSVNLISSLWPTLPSGIEAAYEIEARNQVFLFKDDKYWLISNLRPEPNYPKSIHSFGFPNFVKKIDAAVFNPRFYRTYFFVDNQYWRYDERRQMMDPGYPKLITKNFQGIGPKIDAVFYSKNKYYYFFQGSNQFEYDFLLQRITKTLKSNSWFGC
As to B2, the Kcat/Km was found to be 1400 in data set [1]; 10500 in data set [5]; 2320 in data set [6]; 14000 in data set [9]; 9170 in [8].

B3: Chymase (protein)
chain: IIGGTECKPHSRPYMAYLEIVTSNGPSKFCGGFLIRRNFVLTAAHCAGRSITVTLGAHNITEEEDTWQKLEVIKQFRHPKYNTSTLHHDIMLLKLKEKASLTLAVGTLPFPSQFNFVPPGRMCRVAGWGRTGVLKPGSDTLQEVKLRLMDPQACSHFRDFDHNLQLCVGNPRKTKSAFKGDSGGPLLCAGVAQGIVSYGRSDAKPPAVFTRISHYRPWINQILQAN
Consider B3, for which the Kcat/Km in data set [1] turned out to be 2270; in [4], 1970; in data set [6] it was 11500; in [7], 48100; in data set [9], 16400.

B4: MMP-2 (protein)
chain: YNFFPRKPKWDKNQITYRIIGYTPDLDPETVDDAFARAFQVWSDVTPLRFSRIHDGEADIMINFGRWEHGDGYPFDGKDGLLAHAFAPGTGVGGDSHFDDDELWTLGEGQVVRVKYGNADGEYCKFPFLFNGKEYNSCTDTGRSDGFLWCSTTYNFEKDGKYGFCPHEALFTMGGNAEGQPCKFPFRFQGTSYDSCTTEGRTDGYRWCGTTEDYDRDKKYGFCPETAMSTVGGNSEGAPCVFPFTFLGNKYESCTSAGRSDGKMWCATTANYDDDRKWGFCPDQGYSLFLVAAHEFGHAMGLEHSQDPGALMAPIYTYTKNFRLSQDDIKGIQELYGASPDIDLGTGPTPTLGPVTPEICKQDIVFDGIAQIRGEIFFFKDRFIWRTVTPRDKPMGPLLVATFWPELPEKIDAVYEAPQEEKAVFFAGNEYWIYSASTLERGYPKPLTSLGLPPDVQRVDAAFNWSKNKKTYIFAGDKFWRYNEVKKKMDPGFPKLIADAWNAIPDNLDAVVDLQGGGHSYFFKGAYYLKLENQSLKSVKFGSIKSDWLGC
As to B4, the Kcat/Km in data set [1] worked out at 11400; in data set [5] it was 2420; in data set [6] it was 16200; in [10], 426; in [8], 36400.

B5: Plasmin (protein)
chain: KVYLSECKTGNGKNYRGTMSKTKNGITCQKWSSTSPHRPRFSPATHPSEGLEENYCRNPDNDPQGPWCYTTDPEKRYDYCDILECEEECMHCSGENYDGKISKTMSGLECQAWDSQSPHAHGYIPSKFPNKNLKKNYCRNPDRELRPWCFTTDPNKRWELCDIPRCTTPPPSSGPTYQCLKGTGENYRGNVAVTVSGHTCQHWSAQTPHTHNRTPENFPCKNLDENYCRNPDGKRAPWCHTTNSQVRWEYCKIPSCDSSPVSTEQLAPTAPPELTPVVQDCYHGDGQSYRGTSSTTTTGKKCQSWSSMTPHRHQKTPENYPNAGLTMNYCRNPDADKGPWCFTTDPSVRWEYCNLKKCSGTEASVVAPPPVVLLPDVETPSEEDCMFGNGKGYRGKRATTVTGTPCQDWAAQEPHRHSIFTPETNPRAGLEKNYCRNPDGDVGGPWCYTTNPRKLYDYCDVPQCAAPSFDCGKPQVEPKKCPGRVVGGCVAHPHSWPWQVSLRTRFGMHFCGGTLISPEWVLTAAHCLEKSPRPSSYKVILGAHQEVNLEPHVQEIEVSRLFLEPTRKDIALLKLSSPAVITDKVIPACLPSPNYVVADRTECFITGWGETQGTFGAGLLKEAQLPVIENKVCNRYEFLNGRVQSTELCAGHLAGGTDSCQGDSGGPLVCFEKDKYILQGVTSWGLGCARPNKPGVYVRVSRFVTWIEGVMRNN
Consider B5, for which the Kcat/Km in [2] is 13000; in data set [4], 6510; in data set [11], 4160; in [10], 7720; in data set [9], 19400.
